The record followed here is US20250042973A1 (WUHAN UNIVERSITY, published 2025).

This series concerns the molecule itself. As to the kind of experiment: self-association (homodimer) seen on SDS-PAGE / Western blot after nickel affinity purification. The procedure:
In a process of Western Blot, Gel block of samples from the Electrophoresis was electro-transferred to NC membrane at 100 V for 90 min. The NC membrane was then washed with TBST for three times, and blocked with 5% skim milk on a shaker for 2 h. After blocking, the NC membrane was then washed with TBST for three times, and incubated with GPER antibody (Invitrogen, PA5-28647) overnight. After that, the NC membrane was then washed with TBST for three times, and incubated with secondary antibody (HRP-labeled Goat Anti-Rabbit IgG, ABclonal, AS014, BR) at room temperature for 3 h, washed with TBST for three times, visualized the result in the dark room with DAB.

B1: recombinant protein of GPER (G protein-coupled estrogen receptor) (receptor)
chain: LSHPLLGTALANGTGELSEHQQYVIGLFLSCLYTIFLFPIGFVGNILILVVNISFREKMTIPDLYFINLAVADLILVADSLIEVFNLHERYYDIAVLCTFMSLFLQVNMYSSVFFLTWMSFDRYIALARAMRCSLFRTKHHARLSCGLIWMASVSATLVPFTAVHLQHTDEACFCFADVREVQWLEVTLGFIVPFAIIGLCYSLIVRVLVRAHRMKKYTCTVCGYIYNPEDGDPDNGVNPGTDFKDIPDDWVCPLCGVGKDQFEEVEEHRGLRPRRQKALRMILAVVLVFFVCWLPENVFISVHLLQRTQPGAAPCKQSFRHAHPLTGHIVNLAAFSNSCLNPLIYSFLGETFRDKLRLYIEQKTNL
notes: The source plasmid is wild-type GPER (pDNR-Dual, BC011634, HsCD00005110); The purified protein is reported as monomer and dimer; also called GPER protein
As to B1, the binding result was “binds”.
